1 molecule from paper PMC6557989 (2019) can be followed below.

Test [1] concerns the target pooled human IgG (IVIG; Kiovig) (human). Nature of the test: SEC; n = 1.1 binding sites per Protein H.
In test [2] the target is T1, C4b-binding protein (C4BP), human, purified from plasma (human, UniProt P04003 49-597; P20851 18-252, ^125I-labelled in the binding assay on bacteria).
T1 chain 1: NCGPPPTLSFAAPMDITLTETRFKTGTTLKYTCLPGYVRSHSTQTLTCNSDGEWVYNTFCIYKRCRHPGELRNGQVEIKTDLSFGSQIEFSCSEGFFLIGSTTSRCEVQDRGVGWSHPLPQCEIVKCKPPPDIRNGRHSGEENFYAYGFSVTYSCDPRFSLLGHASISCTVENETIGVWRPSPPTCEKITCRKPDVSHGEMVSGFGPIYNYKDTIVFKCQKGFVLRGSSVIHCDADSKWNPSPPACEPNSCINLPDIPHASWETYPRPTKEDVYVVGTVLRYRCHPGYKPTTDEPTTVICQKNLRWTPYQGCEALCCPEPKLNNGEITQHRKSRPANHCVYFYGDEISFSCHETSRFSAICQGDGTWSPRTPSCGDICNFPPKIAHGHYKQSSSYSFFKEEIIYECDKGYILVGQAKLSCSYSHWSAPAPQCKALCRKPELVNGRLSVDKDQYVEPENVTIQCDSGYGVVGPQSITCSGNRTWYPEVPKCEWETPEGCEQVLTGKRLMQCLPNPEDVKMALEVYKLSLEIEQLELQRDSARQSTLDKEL
T1 chain 2: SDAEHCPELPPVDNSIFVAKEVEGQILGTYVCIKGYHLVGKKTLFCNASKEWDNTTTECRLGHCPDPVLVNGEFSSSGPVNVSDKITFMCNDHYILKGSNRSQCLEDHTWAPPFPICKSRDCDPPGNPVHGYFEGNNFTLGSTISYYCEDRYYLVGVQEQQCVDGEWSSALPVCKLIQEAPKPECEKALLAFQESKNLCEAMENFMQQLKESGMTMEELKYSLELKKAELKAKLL
Nature of the test: SEC; n = 26 binding sites per C4BP.

B1: Protein H (natural protein)
chain: EGAKIDWQEEYKKLDEDNAKLVEVVETTSLENEKLKSENEENKKNLDKLSKENQGKLEKLELDYLKKLDHEHKEHQKEQQEQEERQKNQEQLERKYQREVEKRYQEQLQKQQQLETEKQISEASRKSLSRDLEASRAAKKDLEAEHQKLEAEHQKLKEDKQISDASRQGLSRDLEASRAAKKELEANHQKLEAEHQKLKEDKQISDASRQGLSRDLEASRAAKKELEANHQKLEAEAKALKEQLAKQAEELAKLRAGKASDSQTPDTKPGNKAVPGKGQAPQAGTKPNQNKAPMKETKRQLPST
modifications: ^125I-labelled in the plate binding assay; Alexa-488 succinimidyl ester-labelled in thermophoresis; unlabelled elsewhere
As to B1, the Kd in test [1] came out at 78 nM; in test [2], 1300 nM.
